These results are taken from IntAct's records for PubMed 21666598.

First the molecules themselves.
B1: Shugoshin 2 (Homo sapiens), Q562F6 (parent)
chain: MECPVMETGSLFTSGIKRHLKDKRISKTTKLNVSLASKIKTKILNNSSIFKISLKHNNRALAQALSREKENSRRITTEKMLLQKEVEKLNFENTFLRLKLNNLNKKLIDIEALMNNNLITAIEMSSLSEFHQSSFLLSASKKKRISKQCKLMRLPFARVPLTSNDDEDEDKEKMQCDNNIKSKTLPDIPSSGSTTQPLSTQDNSEVLFLKENNQNVYGLDDSEHISSIVDVPPRESHSHSDQSSKTSLMSEMRNAQSIGRRWEKPSPSNVTERKKRGSSWESNNLSADTPCATVLDKQHISSPELNCNNEINGHTNETNTEMQRNKQDLPGLSSESAREPNAECMNQIEDNDDFQLQKTVYDADMDLTASEVSKIVTVSTGIKKKSNKKTNEHGMKTFRKVKDSSSEKKRERSKRQFKNSSDVDIGEKIENRTERSDVLDGKRGAEDPGFIFNNEQLAQMNEQLAQVNELKKMTLQTGFEQGDRENVLCNKKEKRITNEQEETYSLSQSSGKFHQESKFDKGQNSLTCNKSKASRQTFVIHKLEKDNLLPNQKDKVTIYENLDVTNEFHTANLSTKDNGNLCDYGTHNILDLKKYVTDIQPSEQNESNINKLRKKVNRKTEIISGMNHMYEDNDKDVVHGLKKGNFFFKTQEDKEPISENIEVSKELQIPALSTRDNENQCDYRTQNVLGLQKQITNMYPVQQNESKVNKKLRQKVNRKTEIISEVNHLDNDKSIEYTVKSHSLFLTQKDKEIIPGNLEDPSEFETPALSTKDSGNLYDSEIQNVLGVKHGHDMQPACQNDSKIGKKPRLNVCQKSEIIPETNQIYENDNKGVHDLEKDNFFSLTPKDKETISENLQVTNEFQTVDLLIKDNGNLCDYDTQNILELKKYVTDRKSAEQNESKINKLRNKVNWKTEIISEMNQIYEDNDKDAHVQESYTKDLDFKVNKSKQKLECQDIINKHYMEVNSNEKESCDQILDSYKVVKKRKKESSCKAKNILTKAKNKLASQLTESSQTSISLESDLKHITSEADSDPGNPVELCKTQKQSTTTLNKKDLPFVEEIKEGECQVKKVNKMTSKSKKRKTSIDPSPESHEVMERILDSVQGKSTVSEQADKENNLENEKMVKNKPDFYTKAFRSLSEIHSPNIQDSSFDSVREGLVPLSVSSGKNVIIKENFALECSPAFQVSDDEHEKMNKMKFKVNRRTQKSGIGDRPLQDLSNTSFVSNNTAESENKSEDLSSERTSRRRRCTPFYFKEPSLRDKMRR

Variants of B1 are the subject of the first experiment. The conditions noted are these: with pp1a_human PPP1CA.
In the case of N58I, the “effect of a mutation on the interaction” value was “disrupting interaction”.

The variants in a further experiment derive from B1. Conditions: with md2l1_human MAD2L1, Q13257.
Sequence of md2l1_human MAD2L1, Q13257 (Q13257 whole entry): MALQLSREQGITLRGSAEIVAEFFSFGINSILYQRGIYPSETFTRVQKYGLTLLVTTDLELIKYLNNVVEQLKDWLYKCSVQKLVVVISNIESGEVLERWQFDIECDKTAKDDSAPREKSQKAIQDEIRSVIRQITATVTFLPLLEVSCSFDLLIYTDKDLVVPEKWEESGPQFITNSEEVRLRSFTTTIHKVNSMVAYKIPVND
For the variant R153A, the “effect of a mutation on the interaction” value is “disrupting interaction”.
